The supplement of paper PMC10126150
± gives the standard deviation of the averaged measurements.

Test system: ATP
Test: switch fluorescence ratio, 500 uM ATP over buffer (Cy3 cluster intensity, sum of 5 cycles each) (fold (ratio)); higher = stronger signal-on switching upon ATP binding; sequences stand for … in TCGTCGGCAGCGTCAGATGTGTATAAGAGACAGTTTTTTTTTTTTTTTTTTTTTTTTT…TC
Details: aptamer strand: ATP DNA aptamer (quencher-CACCTGGGGGAGTATTGCGGAGGAAGG + anchor), 100 nM annealed; ATP concentration: 500 uM
Summary of the method: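 After annealing to 100 nM quencher-labelled ATP aptamer, Cy3-labelled switching-strand clusters on a modified Illumina MiSeq flow-cell were imaged in selection buffer. A second image followed after 15 min with 500 uM ATP at 22 °C, and five such buffer/ATP cycles were done, each separated by NaOH stripping and re-annealing. The fluorescence ratio, averaged per switch-domain sequence, is summed target-cycle over summed buffer-cycle Cy3 intensity per cluster, with clusters outside 100-1000 RFU excluded.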
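Further: ATP exposure 15 min at 22 °C before imaging.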

Sequence	switch fluorescence ratio
GTCATTGCGG	0.994 ± 0.015
TGGTTGAGGC	1.01 ± 0.021
AGGAAGTTGC	0.9883 ± 0.0085
ACTGGAGGTG	1.067 ± 0.0038
TGCATTGGGC	1.03 ± 0.013
TGGTCAGGGT	0.9735 ± 0.0097
GCCATTTTGG	0.993 ± 0.013
TTTCACTTTT	0.991 ± 0.032
GCTTGGCAGT	1.03 ± 0.018
CTCTGTCACG	1.11 ± 0.074
CGTGGCAAAG	1.02 ± 0.015
GCTGCTAAGG	0.987 ± 0.056
AGATTTATTT	1.004 ± 0.0097
AAATTAACAT	1.08 ± 0.13
AGTTTGGATA	0.97 ± 0.028
TTTATGTAGG	0.9887 ± 0.0044
TTGGAAACGT	1.06 ± 0.067
AAAGAAAAAA	1.012 ± 0.0025
ACGGGCTAGG	1.01 ± 0.027
ACCGGGGTGT	1.17 ± 0.14
GGGGGAGTTC	1.02 ± 0.014
GTTAACAGGA	0.985 ± 0.019
AGTAAGGGTA	1.0185 ± 0.00081

Sequence	switch fluorescence ratio
TTTTTTGGAG	1.01 ± 0.023
TGTGGTTGCG	1.01 ± 0.017
AATTAGGGGT	1.01 ± 0.02
CGGAAGGGTA	0.989 ± 0.036
GAGCGATGGT	1.12 ± 0.021
GCTGGGGGTT	0.996 ± 0.059
ATGTAAATGA	0.9855 ± 0.0083
TCGTTAAACT	1.02 ± 0.011
CTTCAGTCTT	1 ± 0.011
AAGATCACGG	0.971 ± 0.057
TTACTAGGCG	1.01 ± 0.053
GGGCTATTTA	1 ± 0.011
ATTGGGAGGG	1.022 ± 0.0026
TAGATAGAAC	0.976 ± 0.054
TGGGGAAGGA	0.99 ± 0.018
GGTGGATACA	1.005 ± 0.0036
TTTCCCATTT	1 ± 0.064
CTAGGTTAAA	0.988 ± 0.023
AATCTTGGTT	0.959 ± 0.032
CCGCCAGGGG	3.42 ± 1.8
GAGTGTTCGG	0.988 ± 0.042
GCCGGCAAGT	1.02 ± 0.016
GTTTATTCCT	1.02 ± 0.044

Sequence	switch fluorescence ratio
ACACTTGCCA	1.09 ± 0.019
AGAAAAAGGA	1.01 ± 0.044
CAGATTTCTA	1.02 ± 0.019
CGTGGCGCGT	1.05 ± 0.11
GGCTGGGATG	1.02 ± 0.095
TTAGGCGTAT	0.989 ± 0.041
TTATCCGGTT	1.01 ± 0.012
TAAGACGTTT	1.0122 ± 0.00032
TTTTATATTA	1 ± 0.04
AGAGAGACAG	0.97 ± 0.057
CAGGGAGCAG	1.05 ± 0.03
CGCCTTGTTC	1.01 ± 0.012
GAAGCTGTAT	1.1 ± 0.035
TTGGAGGCCC	0.9801 ± 0.0029
CGTAGAGAGG	0.998 ± 0.0029
AGGCAGAACG	1.048 ± 0.0058
GGCAATTATT	1.02 ± 0.026
ACGGTGACGT	1.01 ± 0.028
CAATATTTTT	1 ± 0.015
AGGTATTAGG	0.988 ± 0.041
TTTGACGTTT	1.02 ± 0.059
AGGGGGCCTT	1.0113 ± 0.00015
CCTAGTACCG	0.992 ± 0.069

Sequence	switch fluorescence ratio
TGACGGAGGC	1.06 ± 0.051
TCGAGTGGAG	1.0319 ± 0.00064
AAGTTGAGGA	0.978 ± 0.016
AAAAACAAAA	1.04 ± 0.065
TGGGACTGTT	0.986 ± 0.028
AAGGGGATCG	1.03 ± 0.027
GGATAGTGTG	0.997 ± 0.014
GATATGTGTG	0.991 ± 0.011
AGCGTTCTTA	1.02 ± 0.041
GTTTTTATTG	0.992 ± 0.042
GGGGACGTCG	0.9972 ± 0.0087
TTTTTGATAG	0.9847 ± 0.0057
AAAGCAGGGG	1.06 ± 0.037
GTTGGGGGG	0.984 ± 0.041
TGTGAAAGTG	0.982 ± 0.041
TAAGCTTCAT	1.04 ± 0.18
TATTTCCACT	1.023 ± 0.01
ATACGTGGTG	1.09 ± 0.086
GTGGGTGTGG	1.02 ± 0.022
GTTCGAAGAC	1.015 ± 0.0023
TAGGGAAGAT	1.07 ± 0.013
TTTCATCTTG	0.9706 ± 0.0034
TTGAAAAATT	1.03 ± 0.016

Sequence	switch fluorescence ratio
AGGAGTAATC	1.04 ± 0.072
GCGTAAGGGT	0.985 ± 0.012
CAATTATTTT	1.02 ± 0.027
TGCAGTGTGG	1.005 ± 0.0078
CCGGCCGGGG	1.01 ± 0.059
TAGCTAATCC	1.08 ± 0.015
GACGGGCTGG	0.989 ± 0.024
TGGGGGGGG	1.01 ± 0.05
AGAGAGGGTT	0.986 ± 0.019
GGGTTTGGGG	0.988 ± 0.022
TGATCAGGAG	0.9853 ± 0.0053
GCGGTTGTCG	1.01 ± 0.03
AAGTCCGGGC	1.02 ± 0.018
TTTTCTGACG	1.03 ± 0.02
TAATATTCAA	1.03 ± 0.014
GTTGGGAGCG	1 ± 0.033
CGTGGAGGGT	0.9966 ± 0.0042
CAGCGGCTGT	0.966 ± 0.026
AGTTTCCGGA	0.992 ± 0.016
GAGGTAGTCT	1.07 ± 0.14
AAGGATTTTG	0.994 ± 0.022
GATATTCGGG	0.988 ± 0.017
TGGGTTCGTA	0.994 ± 0.031

Sequence	switch fluorescence ratio
CTAAGAGGGC	1.0235 ± 0.00018
TTTTTGATGG	1.02 ± 0.037
CATGCCATCC	1.16 ± 0.051
GGTTATGAGT	0.99 ± 0.017
GAAAGGGTCC	1.001 ± 0.01
TAATGCGATG	0.9852 ± 0.005
ATGGTTATGT	1.03 ± 0.026
CATTGTGGGA	0.997 ± 0.023
TCCAAACTGT	1.01 ± 0.051
AGGTGAGATT	1.02 ± 0.018
CAGAGATTTT	1.005 ± 0.0029
ATTTTTTGG	0.997 ± 0.017
TCGATGCTGG	0.982 ± 0.084
CAAATGGGG	0.9589 ± 0.006
GTAAGATTGA	0.986 ± 0.015
GGGGTTGGGC	1 ± 0.028
TCGCTGTAGG	1.1 ± 0.059
TACAATTGAA	1 ± 0.025
GGGAAAAGGG	0.998 ± 0.035
ACAGGGAGGG	1.02 ± 0.015
GGCTGTTGGT	0.9655 ± 0.0072
TTGTTTTTCG	0.978 ± 0.027
ATTAGTTGGA	0.99 ± 0.024

Sequence	switch fluorescence ratio
CGGATAATTT	1.01 ± 0.047
CTCCGAGATG	5.85 ± 0.59
TCCTATATTG	0.986 ± 0.0023
GACTCTGAGT	1.01 ± 0.017
CCGTTACCTG	0.974 ± 0.015
TAGGCATTTT	1 ± 0.023
TGGAGAAATA	1.01 ± 0.048
TTGAAAAAAA	1.2 ± 0.27
CTAGGTATAG	1.006 ± 0.0072
GCCTGGGGGA	1.07 ± 0.12
ATAAGAGACT	1.01 ± 0.03
ACGCGGCGGG	0.977 ± 0.036
CGGGTGACTC	1.02 ± 0.012
GGCCGACAGC	1.03 ± 0.032
GGCCAAGGGG	1.04 ± 0.027
TGTAAGACCA	1.01 ± 0.012
GGTGGGACAA	0.966 ± 0.042
CAAATAGGCC	1.002 ± 0.0014
ACGATTGGTG	1.07 ± 0.056
